Biological target: papain (UniProt P00784)
UniProt P00784, sequence (P00784 134-345): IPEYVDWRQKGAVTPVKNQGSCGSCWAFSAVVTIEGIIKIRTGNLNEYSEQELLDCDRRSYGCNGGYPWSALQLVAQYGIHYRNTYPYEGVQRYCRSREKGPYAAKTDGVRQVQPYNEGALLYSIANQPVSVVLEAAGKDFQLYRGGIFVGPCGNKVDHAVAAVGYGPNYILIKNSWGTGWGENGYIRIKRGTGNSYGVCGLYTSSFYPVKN

salivary tick cystatin OmC2, recombinant, from insect Sf9 cells, with C-terminal oligo His-tag (non-labeled) (natural protein)
active site titration of 10 nM papain with cystatin OmC2 (substrate 10 μM Z-Phe-Arg-AMC, 0.1 M phosphate buffer pH 6.0): molar ratio at which dF/dt = 0 (text: the inhibitor was 88% active): 1.16 molar ratio
